Measured values: article PMC9741242, “Insights into the Structure of the Highly Glycosylated Ffase from Rhodotorula dairenensis Enhance Its Biotechnological Potential” (International Journal of Molecular Sciences, 2022)

B1: RdINV (Rhodotorula dairenensis; A213W/Q216L) (protein)
chain: APAASSLAGPVTTGVFSAVSAIPSFATNLSGQVASATSTVLSGSTASGSSATAAPSASASGASSMQSMASSLSGSAFSPSSMMPIASGNMTMPNMTSSASASSAASTATGVAGGAGSNSSSSCAPTSLPASATELPTTVPTGTVITGDYTGSYRPQVHYSPPKGFMNDPNGCHRDRNGTYHLYYQYNPLEYVWGNLHWGHATSDDLYHWTNQPIAIFPPNSTSQVFSGSAVLDPNNTSGFFPNTTDGVVAVYTLNTPTLQVQEVAYSTDGGYNFTPYENNPVLSVGSNQFRDPKVFWYEDHWVMAVAAANDFTIEIYTSPNLTSWTFASNFTHHGLLGLAYECPNLVQVPFQDDPSKSAWLMYISINPGAPLGGSVGQYFPGDFNGTHFVAYDSAARIADFAKDNYASQWFADTENGESISIAWASNWQYTQQVPTSAQAFRSAMSLPRRNYLTNITRLGWDLVSLPYDLSPVVGPSLLSSSEANSTADVDFTNVTSNAVWFSLNVTLPDAAIQNASLISADASINITFLPSTKCSSSSGSGSDSPAATLTYFYAGLTNGALALTRPAASSSWGAENPFFTDKFSYTLVDPLTSLVGVFDRSMLEVFVNEGAHSATMLVFPDSPVGSMKVATGGLPEGTQVNLQVNGLESTWQSS
notes: full-length RdINV, 675 residues, S. cerevisiae MFalpha secretion signal in pIB4, secreted by Komagataella phaffii; highly N- and O-glycosylated, ~170 kDa; homodimer
B2: RdINV (Rhodotorula dairenensis; A360Q) (protein)
chain: APAASSLAGPVTTGVFSAVSAIPSFATNLSGQVASATSTVLSGSTASGSSATAAPSASASGASSMQSMASSLSGSAFSPSSMMPIASGNMTMPNMTSSASASSAASTATGVAGGAGSNSSSSCAPTSLPASATELPTTVPTGTVITGDYTGSYRPQVHYSPPKGFMNDPNGCHRDRNGTYHLYYQYNPLEYVAGNQHWGHATSDDLYHWTNQPIAIFPPNSTSQVFSGSAVLDPNNTSGFFPNTTDGVVAVYTLNTPTLQVQEVAYSTDGGYNFTPYENNPVLSVGSNQFRDPKVFWYEDHWVMAVAAANDFTIEIYTSPNLTSWTFASNFTHHGLLGLQYECPNLVQVPFQDDPSKSAWLMYISINPGAPLGGSVGQYFPGDFNGTHFVAYDSAARIADFAKDNYASQWFADTENGESISIAWASNWQYTQQVPTSAQAFRSAMSLPRRNYLTNITRLGWDLVSLPYDLSPVVGPSLLSSSEANSTADVDFTNVTSNAVWFSLNVTLPDAAIQNASLISADASINITFLPSTKCSSSSGSGSDSPAATLTYFYAGLTNGALALTRPAASSSWGAENPFFTDKFSYTLVDPLTSLVGVFDRSMLEVFVNEGAHSATMLVFPDSPVGSMKVATGGLPEGTQVNLQVNGLESTWQSS
notes: as for B1
B3: RdINV (Rhodotorula dairenensis; A213W) (protein)
chain: APAASSLAGPVTTGVFSAVSAIPSFATNLSGQVASATSTVLSGSTASGSSATAAPSASASGASSMQSMASSLSGSAFSPSSMMPIASGNMTMPNMTSSASASSAASTATGVAGGAGSNSSSSCAPTSLPASATELPTTVPTGTVITGDYTGSYRPQVHYSPPKGFMNDPNGCHRDRNGTYHLYYQYNPLEYVWGNQHWGHATSDDLYHWTNQPIAIFPPNSTSQVFSGSAVLDPNNTSGFFPNTTDGVVAVYTLNTPTLQVQEVAYSTDGGYNFTPYENNPVLSVGSNQFRDPKVFWYEDHWVMAVAAANDFTIEIYTSPNLTSWTFASNFTHHGLLGLAYECPNLVQVPFQDDPSKSAWLMYISINPGAPLGGSVGQYFPGDFNGTHFVAYDSAARIADFAKDNYASQWFADTENGESISIAWASNWQYTQQVPTSAQAFRSAMSLPRRNYLTNITRLGWDLVSLPYDLSPVVGPSLLSSSEANSTADVDFTNVTSNAVWFSLNVTLPDAAIQNASLISADASINITFLPSTKCSSSSGSGSDSPAATLTYFYAGLTNGALALTRPAASSSWGAENPFFTDKFSYTLVDPLTSLVGVFDRSMLEVFVNEGAHSATMLVFPDSPVGSMKVATGGLPEGTQVNLQVNGLESTWQSS
notes: as for B1
B4: RdINV (Rhodotorula dairenensis; N387T) (protein)
chain: APAASSLAGPVTTGVFSAVSAIPSFATNLSGQVASATSTVLSGSTASGSSATAAPSASASGASSMQSMASSLSGSAFSPSSMMPIASGNMTMPNMTSSASASSAASTATGVAGGAGSNSSSSCAPTSLPASATELPTTVPTGTVITGDYTGSYRPQVHYSPPKGFMNDPNGCHRDRNGTYHLYYQYNPLEYVAGNQHWGHATSDDLYHWTNQPIAIFPPNSTSQVFSGSAVLDPNNTSGFFPNTTDGVVAVYTLNTPTLQVQEVAYSTDGGYNFTPYENNPVLSVGSNQFRDPKVFWYEDHWVMAVAAANDFTIEIYTSPNLTSWTFASNFTHHGLLGLAYECPNLVQVPFQDDPSKSAWLMYISITPGAPLGGSVGQYFPGDFNGTHFVAYDSAARIADFAKDNYASQWFADTENGESISIAWASNWQYTQQVPTSAQAFRSAMSLPRRNYLTNITRLGWDLVSLPYDLSPVVGPSLLSSSEANSTADVDFTNVTSNAVWFSLNVTLPDAAIQNASLISADASINITFLPSTKCSSSSGSGSDSPAATLTYFYAGLTNGALALTRPAASSSWGAENPFFTDKFSYTLVDPLTSLVGVFDRSMLEVFVNEGAHSATMLVFPDSPVGSMKVATGGLPEGTQVNLQVNGLESTWQSS
notes: as for B1
B5: RdINV (Rhodotorula dairenensis; Q216T) (protein)
chain: APAASSLAGPVTTGVFSAVSAIPSFATNLSGQVASATSTVLSGSTASGSSATAAPSASASGASSMQSMASSLSGSAFSPSSMMPIASGNMTMPNMTSSASASSAASTATGVAGGAGSNSSSSCAPTSLPASATELPTTVPTGTVITGDYTGSYRPQVHYSPPKGFMNDPNGCHRDRNGTYHLYYQYNPLEYVAGNTHWGHATSDDLYHWTNQPIAIFPPNSTSQVFSGSAVLDPNNTSGFFPNTTDGVVAVYTLNTPTLQVQEVAYSTDGGYNFTPYENNPVLSVGSNQFRDPKVFWYEDHWVMAVAAANDFTIEIYTSPNLTSWTFASNFTHHGLLGLAYECPNLVQVPFQDDPSKSAWLMYISINPGAPLGGSVGQYFPGDFNGTHFVAYDSAARIADFAKDNYASQWFADTENGESISIAWASNWQYTQQVPTSAQAFRSAMSLPRRNYLTNITRLGWDLVSLPYDLSPVVGPSLLSSSEANSTADVDFTNVTSNAVWFSLNVTLPDAAIQNASLISADASINITFLPSTKCSSSSGSGSDSPAATLTYFYAGLTNGALALTRPAASSSWGAENPFFTDKFSYTLVDPLTSLVGVFDRSMLEVFVNEGAHSATMLVFPDSPVGSMKVATGGLPEGTQVNLQVNGLESTWQSS
notes: as for B1
B6: RdINV (Rhodotorula dairenensis; A360Q/N387T) (protein)
chain: APAASSLAGPVTTGVFSAVSAIPSFATNLSGQVASATSTVLSGSTASGSSATAAPSASASGASSMQSMASSLSGSAFSPSSMMPIASGNMTMPNMTSSASASSAASTATGVAGGAGSNSSSSCAPTSLPASATELPTTVPTGTVITGDYTGSYRPQVHYSPPKGFMNDPNGCHRDRNGTYHLYYQYNPLEYVAGNQHWGHATSDDLYHWTNQPIAIFPPNSTSQVFSGSAVLDPNNTSGFFPNTTDGVVAVYTLNTPTLQVQEVAYSTDGGYNFTPYENNPVLSVGSNQFRDPKVFWYEDHWVMAVAAANDFTIEIYTSPNLTSWTFASNFTHHGLLGLQYECPNLVQVPFQDDPSKSAWLMYISITPGAPLGGSVGQYFPGDFNGTHFVAYDSAARIADFAKDNYASQWFADTENGESISIAWASNWQYTQQVPTSAQAFRSAMSLPRRNYLTNITRLGWDLVSLPYDLSPVVGPSLLSSSEANSTADVDFTNVTSNAVWFSLNVTLPDAAIQNASLISADASINITFLPSTKCSSSSGSGSDSPAATLTYFYAGLTNGALALTRPAASSSWGAENPFFTDKFSYTLVDPLTSLVGVFDRSMLEVFVNEGAHSATMLVFPDSPVGSMKVATGGLPEGTQVNLQVNGLESTWQSS
notes: as for B1
B7: RdINV (Rhodotorula dairenensis) (protein)
chain: APAASSLAGPVTTGVFSAVSAIPSFATNLSGQVASATSTVLSGSTASGSSATAAPSASASGASSMQSMASSLSGSAFSPSSMMPIASGNMTMPNMTSSASASSAASTATGVAGGAGSNSSSSCAPTSLPASATELPTTVPTGTVITGDYTGSYRPQVHYSPPKGFMNDPNGCHRDRNGTYHLYYQYNPLEYVAGNQHWGHATSDDLYHWTNQPIAIFPPNSTSQVFSGSAVLDPNNTSGFFPNTTDGVVAVYTLNTPTLQVQEVAYSTDGGYNFTPYENNPVLSVGSNQFRDPKVFWYEDHWVMAVAAANDFTIEIYTSPNLTSWTFASNFTHHGLLGLAYECPNLVQVPFQDDPSKSAWLMYISINPGAPLGGSVGQYFPGDFNGTHFVAYDSAARIADFAKDNYASQWFADTENGESISIAWASNWQYTQQVPTSAQAFRSAMSLPRRNYLTNITRLGWDLVSLPYDLSPVVGPSLLSSSEANSTADVDFTNVTSNAVWFSLNVTLPDAAIQNASLISADASINITFLPSTKCSSSSGSGSDSPAATLTYFYAGLTNGALALTRPAASSSWGAENPFFTDKFSYTLVDPLTSLVGVFDRSMLEVFVNEGAHSATMLVFPDSPVGSMKVATGGLPEGTQVNLQVNGLESTWQSS
notes: as for B1
B8: RdINV (Rhodotorula dairenensis; Q216L) (protein)
chain: APAASSLAGPVTTGVFSAVSAIPSFATNLSGQVASATSTVLSGSTASGSSATAAPSASASGASSMQSMASSLSGSAFSPSSMMPIASGNMTMPNMTSSASASSAASTATGVAGGAGSNSSSSCAPTSLPASATELPTTVPTGTVITGDYTGSYRPQVHYSPPKGFMNDPNGCHRDRNGTYHLYYQYNPLEYVAGNLHWGHATSDDLYHWTNQPIAIFPPNSTSQVFSGSAVLDPNNTSGFFPNTTDGVVAVYTLNTPTLQVQEVAYSTDGGYNFTPYENNPVLSVGSNQFRDPKVFWYEDHWVMAVAAANDFTIEIYTSPNLTSWTFASNFTHHGLLGLAYECPNLVQVPFQDDPSKSAWLMYISINPGAPLGGSVGQYFPGDFNGTHFVAYDSAARIADFAKDNYASQWFADTENGESISIAWASNWQYTQQVPTSAQAFRSAMSLPRRNYLTNITRLGWDLVSLPYDLSPVVGPSLLSSSEANSTADVDFTNVTSNAVWFSLNVTLPDAAIQNASLISADASINITFLPSTKCSSSSGSGSDSPAATLTYFYAGLTNGALALTRPAASSSWGAENPFFTDKFSYTLVDPLTSLVGVFDRSMLEVFVNEGAHSATMLVFPDSPVGSMKVATGGLPEGTQVNLQVNGLESTWQSS
notes: as for B1

Substrate: OC[C@H]1O[C@@](CO)(O[C@H]2O[C@H](CO)[C@@H](O)[C@H](O)[C@H]2O)[C@@H](O)[C@@H]1O
Test: DNS reducing sugar assay, Michaelis-Menten fit
Format: biochemical, Rhodotorula dairenensis
Conditions: 50 mM sodium phosphate pH 5.5, 60 °C, sucrose 1-200 mM
Excerpt: DNS reducing sugar assay, Michaelis-Menten fit on RdINV

In order of falling Km:
1. B1  88 ± 9 mM
2. B3  47 ± 3 mM
3. B8  24 ± 1 mM
4. B4  17 ± 0.8 mM
5. B2  15 ± 0.2 mM
6. B6  14 ± 0.6 mM
7. B5  13 ± 1 mM
8. B7  5 ± 0.1 mM

In order of falling kcat:
1. B5  11500 ± 182 s⁻¹
2. B1  10500 ± 329 s⁻¹
3. B7  4751 ± 25 s⁻¹
4. B2  3814 ± 16 s⁻¹
5. B3  2720 ± 45 s⁻¹
6. B8  2324 ± 13 s⁻¹
7. B4  583 ± 5 s⁻¹
8. B6  486 ± 4 s⁻¹

In order of rising kcat/Km:
1. B6  34000 ± 1000 M⁻¹ s⁻¹
2. B4  35000 ± 1000 M⁻¹ s⁻¹
3. B3  58000 ± 3000 M⁻¹ s⁻¹
4. B8  98000 ± 3000 M⁻¹ s⁻¹
5. B1  120000 ± 4000 M⁻¹ s⁻¹
6. B2  251000 ± 21000 M⁻¹ s⁻¹
7. B5  864000 ± 39000 M⁻¹ s⁻¹
8. B7  1.011e+06 ± 10000 M⁻¹ s⁻¹
